Patent publication US20150147318A1 (ZOETIS SERVICES, published 2015)
Numbering of substitutions follows the chain as printed. In names and notes the source's numbering stands.

Tests used:
[1] = biological target: T1, recombinant canine Nerve Growth Factor (Canis lupus familiaris NGF) (canine (Canis lupus familiaris), UniProt Q29074 110-229 (pig entry), limits assumed); experiment: SPR, 1:1 binding fit, canine NGF
T1 construct: also called canine NGF; Dog NGF
T1 chain: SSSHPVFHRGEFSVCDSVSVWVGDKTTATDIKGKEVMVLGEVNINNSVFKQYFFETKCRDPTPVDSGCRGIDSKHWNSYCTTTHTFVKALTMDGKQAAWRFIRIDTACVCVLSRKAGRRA

[2] = biological target: T1, recombinant canine Nerve Growth Factor …; experiment: SPR, Biacore T100, dog NGF; run 11/24; comment 'Agg?'
[3] = biological target: T1, recombinant canine Nerve Growth Factor …; experiment: SPR, Biacore T100, dog NGF; run 11/29; comment 'Agg?'
[4] = biological target: T1, recombinant canine Nerve Growth Factor …; experiment: cell-based or functional assay
[5] = biological target: T1, recombinant canine Nerve Growth Factor …; experiment: SPR trkA inhibition: mAb pre-incubated with NGF, binding of NGF to trkA measured in RU
[6] = biological target: T1, recombinant canine Nerve Growth Factor …; experiment: SPR, Biacore T100, dog NGF; run 11/22

B1: LTM135 (HC G103A, LC H32N) (antibody, V domains shown)
VH: EVQLVESGGDLARPGGSLKLSCVVSGFSLIGYDINWVRQAPGKGLQWVTMIWGDGTTDYNSALKSRFTVSRDNAMNTVYLQMNSLRVEDTAVYYCARGGYYYATSYYFDYWGQGTLVTVSS
VL: DIVMTQTPLSLSVSPGETASISCRASQDISNNLNWFRQKPGQSPQRLIYYISRFHSGVPDRFSGSGSGTDFTLRISRVEADDTGVYYCQQSKTLPYTFGAGTKLEIK
notes: Point mutant of canE3M65 as full IgG
- Kd [1]: 1.69 nM
- koff [1]: 4.23e-05 s⁻¹
- kon [1]: 25100 M⁻¹ s⁻¹
- Kd [2]: 0.138 nM
- Kd [3]: 0.0061 nM

B2: LTM construct 111 (HC Y101W, G103A; LC *D28S, NH31HN, S91Y) (antibody, V domains shown)
VH: B1 VH with Y101W
VL: B1 VL with D28S, N31H, S91Y
notes: The '*' is not explained
- Kd [2]: 0.146 nM
- Kd [3]: 0.0288 nM

B3: SSM66 (CAN-SSM66-VH, CAN-SSME3M-VL) (antibody, V domains shown)
VH: B1 VH with G31E, D54T, Y101W
VL: B1 VL with D28S, R53S, K92H
- EC50, pERK inhibition, PC-12 (Rat Neuronal), pre-incubation 1 hour, 2/23/11 (SSM66) [4]: 1.45 nM
- EC50, pERK inhibition, PC-12 (Rat Neuronal), pre-incubation 1 hour, 3/26/11 (SSM66) [4]: 0.71 nM
- EC50, pERK inhibition, huTrkA (CHO), pre-incubation 1 hour, 3/26/11 (SSM66) [4]: 0.76 nM
- EC50, pERK inhibition, huTrkA (CHO), pre-incubation 1 hour, 3/31/11 (SSM66) [4]: 0.94 nM
- EC50, pERK inhibition, huTrkA (CHO), pre-incubation 6 hour, 3/31/11 (SSM66) [4]: 0.69 nM
- Fold Potency Difference versus RN911, pERK inhibition, PC-12 (Rat Neuronal), pre-incubation 1 hour, 2/23/11 (SSM66) [4]: 2.2 fold
- Fold Potency Difference versus RN911, pERK inhibition, PC-12 (Rat Neuronal), pre-incubation 1 hour, 3/26/11 (SSM66) [4]: 1.5 fold
- Fold Potency Difference versus RN911, pERK inhibition, huTrkA (CHO), pre-incubation 1 hour, 3/26/11 (SSM66) [4]: 1.6 fold
- Fold Potency Difference versus RN911, pERK inhibition, huTrkA (CHO), pre-incubation 1 hour, 3/31/11 (SSM66) [4]: 1.5 fold
- Fold Potency Difference versus RN911, pERK inhibition, huTrkA (CHO), pre-incubation 6 hour, 3/31/11 (SSM66) [4]: 1.2 fold
- Ki [5]: 4.5 nM

B4: LTM construct 110 (HC Y101W, G103A; LC K92D) (antibody, V domains shown)
VH: B1 VH with Y101W
VL: B1 VL with N32H, K92D
notes: as for B1
- Kd [2]: 0.00326 nM
- Kd [3]: 0.942 nM

B5: LTM construct 38 (HC Y100W, LC D28S, NH31HN, K92D) (antibody, V domains shown)
VH: B1 VH with Y100W, A103G
VL: B1 VL with D28S, N31H, K92D
notes: Point mutant of canE3M65 as full IgG; Constant regions are not restated
- Kd [6]: 2.15 nM

B6: SSM-2 (LC E3M, HC SSMwtHCG31Q) (antibody, V domains shown)
VH: B1 VH with G31Q, A103G
VL: B1 VL with N32H
notes: IgG expressed in HEK293; constant regions are not restated
- Kd [1]: 14.2 nM
- koff [1]: 0.000114 s⁻¹
- kon [1]: 8080 M⁻¹ s⁻¹

B7: LTM construct 32 (HC Y100W, LC D28S) (antibody, V domains shown)
VH: B1 VH with Y100W, A103G
VL: B1 VL with D28S, N32H
notes: Point mutant of canE3M65, converted into full IgG and expressed in HEK293; The canine constant regions are not restated
- Kd [6]: 2.25 nM

B8: SSM-34 (LC SSM135LCR53S, HC135 (G103A)) (antibody, V domains shown)
VH: B1 VH
VL: B1 VL with R53S
notes: The light chain is the LTM135 template (E3M H32N) plus R53S
- Kd [1]: 3.08 nM
- koff [1]: 0.000192 s⁻¹
- kon [1]: 62400 M⁻¹ s⁻¹

B9: SSM-22 (LC SSMwtLCR53S, HC SSMwtHCD54T, G31E) (antibody, V domains shown)
VH: B1 VH with G31E, D54T, A103G
VL: B1 VL with N32H, R53S
- Kd [1]: 249 nM
- koff [1]: 0.000296 s⁻¹
- kon [1]: 1190 M⁻¹ s⁻¹

B10: LTM construct 133 (HC G103A, LC K92H) (antibody, V domains shown)
VH: B1 VH
VL: B1 VL with N32H, K92H
notes: as for B1
- Kd [2]: 0.00133 nM
- Kd [3]: 0.011 nM

B11: SSM-14 (LC SSMwtLCR53S, HC SSMwtHCG31E) (antibody, V domains shown)
VH: B1 VH with G31E, A103G
VL: B1 VL with N32H, R53S
- Kd [1]: 23.6 nM
- koff [1]: 0.00812 s⁻¹
- kon [1]: 344000 M⁻¹ s⁻¹

B12: SSM-19 (LC SSMwtLCR53S, HC SSMwtHCD54T, L63I) (antibody, V domains shown)
VH: B1 VH with D54T, L63I, A103G
VL: B1 VL with N32H, R53S
- Kd [1]: 37.4 nM
- koff [1]: 0.00164 s⁻¹
- kon [1]: 43800 M⁻¹ s⁻¹

B13: SSM-36 (LC SSM135LCR53S, HC SSM135HCG31E) (antibody, V domains shown)
VH: B1 VH with G31E
VL: B1 VL with R53S
notes: Both chains are built on the LTM135 template (HC G103A, LC H32N)
- Kd [1]: 40.2 nM
- koff [1]: 0.00033 s⁻¹
- kon [1]: 8200 M⁻¹ s⁻¹

B14: LTM construct 37 (HC Y100W, LC *D28S, NH31HN, S91Y) (antibody, V domains shown)
VH: B1 VH with Y100W, A103G
VL: B1 VL with D28S, N31H, S91Y
notes: as for B1
- Kd [6]: 1.91 nM

B15: LTM construct 112 (HC Y101W, G103A; LC D28S, NH31HN, K92D) (antibody, V domains shown)
VH: B1 VH with Y101W
VL: B1 VL with D28S, N31H, K92D
notes: as for B1
- Kd [2]: 0.00165 nM
- Kd [3]: 0.0152 nM

B16: SSM-8 (LC E3M, HC SSMwtHCD54T, L63I) (antibody, V domains shown)
VH: B1 VH with D54T, L63I, A103G
VL: B1 VL with N32H
- Kd [1]: 41.8 nM
- koff [1]: 0.000173 s⁻¹
- kon [1]: 4130 M⁻¹ s⁻¹

B17: LTM construct 39 (HC Y100W, LC D28S, S91Y) (antibody, V domains shown)
VH: B1 VH with Y100W, A103G
VL: B1 VL with D28S, N32H, S91Y
notes: as for B5
- binding result [6]: no binding

B18: SSM-13 (LC SSMwtLCR53S, HC SSMwtHCG31Q) (antibody, V domains shown)
VH: B1 VH with G31Q, A103G
VL: B1 VL with N32H, R53S
- Kd [1]: 311 nM
- koff [1]: 0.00241 s⁻¹
- kon [1]: 7750 M⁻¹ s⁻¹

B19: SSM58 (CAN-SSM58-VH, CAN-SSME3M-VL) (antibody, V domains shown)
VH: B1 VH with G31E, Y101W
VL: B1 VL with D28S, R53S, K92H
- EC50, pERK inhibition, PC-12 (Rat Neuronal), pre-incubation 1 hour, 2/23/11 (SSM58) [4]: 1.05 nM
- EC50, pERK inhibition, PC-12 (Rat Neuronal), pre-incubation 1 hour, 3/26/11 (SSM58) [4]: 0.65 nM
- EC50, pERK inhibition, huTrkA (CHO), pre-incubation 1 hour, 3/26/11 (SSM58) [4]: 0.79 nM
- EC50, pERK inhibition, huTrkA (CHO), pre-incubation 1 hour, 3/31/11 (SSM58) [4]: 0.86 nM
- EC50, pERK inhibition, huTrkA (CHO), pre-incubation 6 hour, 3/31/11 (SSM58) [4]: 0.72 nM
- Fold Potency Difference versus RN911, pERK inhibition, PC-12 (Rat Neuronal), pre-incubation 1 hour, 2/23/11 (SSM58) [4]: 1.6 fold
- Fold Potency Difference versus RN911, pERK inhibition, PC-12 (Rat Neuronal), pre-incubation 1 hour, 3/26/11 (SSM58) [4]: 1.4 fold
- Fold Potency Difference versus RN911, pERK inhibition, huTrkA (CHO), pre-incubation 1 hour, 3/26/11 (SSM58) [4]: 1.7 fold
- Fold Potency Difference versus RN911, pERK inhibition, huTrkA (CHO), pre-incubation 1 hour, 3/31/11 (SSM58) [4]: 1.4 fold
- Fold Potency Difference versus RN911, pERK inhibition, huTrkA (CHO), pre-incubation 6 hour, 3/31/11 (SSM58) [4]: 1.3 fold
- Ki [5]: 4.2 nM

B20: SSM57 (CAN-SSM57-VH, CAN-SSME3M-VL) (antibody, V domains shown)
VH: B1 VH with G31Q, Y101W
VL: B1 VL with D28S, R53S, K92H
notes: also called PF 06442590; PF-06442591
- EC50, pERK inhibition, PC-12 (Rat Neuronal), pre-incubation 1 hour, 2/23/11 (SSM57) [4]: 1.08 nM
- EC50, pERK inhibition, PC-12 (Rat Neuronal), pre-incubation 1 hour, 3/26/11 (SSM57) [4]: 0.65 nM
- EC50, pERK inhibition, huTrkA (CHO), pre-incubation 1 hour, 3/26/11 (SSM57) [4]: 0.85 nM
- EC50, pERK inhibition, huTrkA (CHO), pre-incubation 1 hour, 3/31/11 (SSM57) [4]: 0.86 nM
- EC50, pERK inhibition, huTrkA (CHO), pre-incubation 6 hour, 3/31/11 (SSM57) [4]: 0.73 nM
- Fold Potency Difference versus RN911, pERK inhibition, PC-12 (Rat Neuronal), pre-incubation 1 hour, 2/23/11 (SSM57) [4]: 1.6 fold
- Fold Potency Difference versus RN911, pERK inhibition, PC-12 (Rat Neuronal), pre-incubation 1 hour, 3/26/11 (SSM57) [4]: 1.4 fold
- Fold Potency Difference versus RN911, pERK inhibition, huTrkA (CHO), pre-incubation 1 hour, 3/26/11 (SSM57) [4]: 1.8 fold
- Fold Potency Difference versus RN911, pERK inhibition, huTrkA (CHO), pre-incubation 1 hour, 3/31/11 (SSM57) [4]: 1.4 fold
- Fold Potency Difference versus RN911, pERK inhibition, huTrkA (CHO), pre-incubation 6 hour, 3/31/11 (SSM57) [4]: 1.3 fold
- Ki [5]: 4.2 nM

B21: LTM construct 33 (HC Y100W, LC *D28S, NH31HN) (antibody, V domains shown)
VH: B1 VH with Y100W, A103G
VL: B1 VL with D28S, N31H
notes: as for B1
- binding result [6]: no binding

B22: LTM construct 36 (HC Y100W, LC K92D) (antibody, V domains shown)
VH: B1 VH with Y100W, A103G
VL: B1 VL with N32H, K92D
notes: as for B5
- Kd [6]: 5.5 nM

B23: SSM-3 (LC E3M, HC SSMwtHCG31E) (antibody, V domains shown)
VH: B1 VH with G31E, A103G
VL: B1 VL with N32H
- Kd [1]: 41.4 nM
- koff [1]: 0.000167 s⁻¹
- kon [1]: 4040 M⁻¹ s⁻¹

B24: SSM-17 (LC SSMwtLCR53S, HC SSMwtHCD54T) (antibody, V domains shown)
VH: B1 VH with D54T, A103G
VL: B1 VL with N32H, R53S
- Kd [1]: 69.1 nM
- koff [1]: 0.0014 s⁻¹
- kon [1]: 20300 M⁻¹ s⁻¹
